B1: MTSP-1 protease domain Q38W/I41S/D96R/ins97aA/C122S/G151N/Q192A (enzyme)
chain: VVGGTDADEGEWPWQVSLHALGWGHSCGASLISPNWLVSAAHCYIDDRGFRYSDPTQWTAFLGLHDQSQRSAPGVQERRLKRIISHPFFNRFATFDYDIALLELEKPAEYSSMVRPISLPDASHVFPAGKAIWVTGWGHTQYGGTNALILQKGEIRVINQTTCENLLPQQITPRMMCVGFLSGGVDSCAGDSGGPLSSVEADGRIFQAGVVSWGDGCAQRNKPGVYTRLPLFRDWIKENTGV
B2: MTSP-1 protease domain Q38H/I41A/D96R/ins97aQ/C122S (enzyme)
chain: VVGGTDADEGEWPWQVSLHALGHGHACGASLISPNWLVSAAHCYIDDRGFRYSDPTQWTAFLGLHDQSQRSAPGVQERRLKRIISHPFFNRFQTFDYDIALLELEKPAEYSSMVRPISLPDASHVFPAGKAIWVTGWGHTQYGGTGALILQKGEIRVINQTTCENLLPQQITPRMMCVGFLSGGVDSCQGDSGGPLSSVEADGRIFQAGVVSWGDGCAQRNKPGVYTRLPLFRDWIKENTGV
B3: MTSP-1 protease domain Q38H/I41S/D96V/ins97aA/C122S/G151N/Q192A (enzyme)
chain: VVGGTDADEGEWPWQVSLHALGHGHSCGASLISPNWLVSAAHCYIDDRGFRYSDPTQWTAFLGLHDQSQRSAPGVQERRLKRIISHPFFNVFATFDYDIALLELEKPAEYSSMVRPISLPDASHVFPAGKAIWVTGWGHTQYGGTNALILQKGEIRVINQTTCENLLPQQITPRMMCVGFLSGGVDSCAGDSGGPLSSVEADGRIFQAGVVSWGDGCAQRNKPGVYTRLPLFRDWIKENTGV
B4: MTSP-1 protease domain L33M/Q38F/I41S/D96A/ins97aW/C122S/G151N/Q192S (enzyme)
chain: VVGGTDADEGEWPWQVSMHALGFGHSCGASLISPNWLVSAAHCYIDDRGFRYSDPTQWTAFLGLHDQSQRSAPGVQERRLKRIISHPFFNAFWTFDYDIALLELEKPAEYSSMVRPISLPDASHVFPAGKAIWVTGWGHTQYGGTNALILQKGEIRVINQTTCENLLPQQITPRMMCVGFLSGGVDSCSGDSGGPLSSVEADGRIFQAGVVSWGDGCAQRNKPGVYTRLPLFRDWIKENTGV
B5: MTSP-1 protease domain Q38H/I41T/D96K/ins97aL/C122S/G151N/Q192A (enzyme)
chain: VVGGTDADEGEWPWQVSLHALGHGHTCGASLISPNWLVSAAHCYIDDRGFRYSDPTQWTAFLGLHDQSQRSAPGVQERRLKRIISHPFFNKFLTFDYDIALLELEKPAEYSSMVRPISLPDASHVFPAGKAIWVTGWGHTQYGGTNALILQKGEIRVINQTTCENLLPQQITPRMMCVGFLSGGVDSCAGDSGGPLSSVEADGRIFQAGVVSWGDGCAQRNKPGVYTRLPLFRDWIKENTGV
B6: MTSP-1 protease domain Q38W/I41V/D96R/ins97aA/C122S/G151N (enzyme)
chain: VVGGTDADEGEWPWQVSLHALGWGHVCGASLISPNWLVSAAHCYIDDRGFRYSDPTQWTAFLGLHDQSQRSAPGVQERRLKRIISHPFFNRFATFDYDIALLELEKPAEYSSMVRPISLPDASHVFPAGKAIWVTGWGHTQYGGTNALILQKGEIRVINQTTCENLLPQQITPRMMCVGFLSGGVDSCQGDSGGPLSSVEADGRIFQAGVVSWGDGCAQRNKPGVYTRLPLFRDWIKENTGV
B7: MTSP-1 protease domain Q38F/I41V/D96Q/ins97aT/C122S/G151D (enzyme)
chain: VVGGTDADEGEWPWQVSLHALGFGHVCGASLISPNWLVSAAHCYIDDRGFRYSDPTQWTAFLGLHDQSQRSAPGVQERRLKRIISHPFFNQFTTFDYDIALLELEKPAEYSSMVRPISLPDASHVFPAGKAIWVTGWGHTQYGGTDALILQKGEIRVINQTTCENLLPQQITPRMMCVGFLSGGVDSCQGDSGGPLSSVEADGRIFQAGVVSWGDGCAQRNKPGVYTRLPLFRDWIKENTGV
B8: MTSP-1 protease domain Q38H/I41S/D96Q/ins97aA/C122S/Q192T (enzyme)
chain: VVGGTDADEGEWPWQVSLHALGHGHSCGASLISPNWLVSAAHCYIDDRGFRYSDPTQWTAFLGLHDQSQRSAPGVQERRLKRIISHPFFNQFATFDYDIALLELEKPAEYSSMVRPISLPDASHVFPAGKAIWVTGWGHTQYGGTGALILQKGEIRVINQTTCENLLPQQITPRMMCVGFLSGGVDSCTGDSGGPLSSVEADGRIFQAGVVSWGDGCAQRNKPGVYTRLPLFRDWIKENTGV

For the assay, the target named is plasma purified human complement protein C3 (human) (UniProt P01024). Kind of assay: cell-based or functional assay.
Sequence of plasma purified human complement protein C3 (human) (P01024 23-667, chain 1 of 2): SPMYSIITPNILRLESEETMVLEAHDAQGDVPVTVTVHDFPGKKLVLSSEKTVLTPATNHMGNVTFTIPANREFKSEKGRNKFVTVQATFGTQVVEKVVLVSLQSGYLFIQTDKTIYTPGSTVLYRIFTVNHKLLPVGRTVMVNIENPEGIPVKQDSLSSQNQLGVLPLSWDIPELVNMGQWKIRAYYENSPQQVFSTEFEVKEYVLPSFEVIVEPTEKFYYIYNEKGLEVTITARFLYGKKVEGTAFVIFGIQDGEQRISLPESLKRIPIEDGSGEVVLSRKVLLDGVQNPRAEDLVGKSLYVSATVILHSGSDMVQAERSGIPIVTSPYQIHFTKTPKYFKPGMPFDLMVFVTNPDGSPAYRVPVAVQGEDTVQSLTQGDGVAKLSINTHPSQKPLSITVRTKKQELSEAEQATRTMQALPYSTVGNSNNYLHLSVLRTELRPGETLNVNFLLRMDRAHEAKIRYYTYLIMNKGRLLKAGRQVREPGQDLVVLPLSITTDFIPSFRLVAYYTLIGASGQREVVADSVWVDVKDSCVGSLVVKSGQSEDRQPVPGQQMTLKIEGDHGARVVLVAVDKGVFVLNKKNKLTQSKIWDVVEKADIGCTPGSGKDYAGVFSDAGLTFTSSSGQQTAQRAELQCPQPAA
Sequence of plasma purified human complement protein C3 (human) (P01024 672-1663, chain 2 of 2): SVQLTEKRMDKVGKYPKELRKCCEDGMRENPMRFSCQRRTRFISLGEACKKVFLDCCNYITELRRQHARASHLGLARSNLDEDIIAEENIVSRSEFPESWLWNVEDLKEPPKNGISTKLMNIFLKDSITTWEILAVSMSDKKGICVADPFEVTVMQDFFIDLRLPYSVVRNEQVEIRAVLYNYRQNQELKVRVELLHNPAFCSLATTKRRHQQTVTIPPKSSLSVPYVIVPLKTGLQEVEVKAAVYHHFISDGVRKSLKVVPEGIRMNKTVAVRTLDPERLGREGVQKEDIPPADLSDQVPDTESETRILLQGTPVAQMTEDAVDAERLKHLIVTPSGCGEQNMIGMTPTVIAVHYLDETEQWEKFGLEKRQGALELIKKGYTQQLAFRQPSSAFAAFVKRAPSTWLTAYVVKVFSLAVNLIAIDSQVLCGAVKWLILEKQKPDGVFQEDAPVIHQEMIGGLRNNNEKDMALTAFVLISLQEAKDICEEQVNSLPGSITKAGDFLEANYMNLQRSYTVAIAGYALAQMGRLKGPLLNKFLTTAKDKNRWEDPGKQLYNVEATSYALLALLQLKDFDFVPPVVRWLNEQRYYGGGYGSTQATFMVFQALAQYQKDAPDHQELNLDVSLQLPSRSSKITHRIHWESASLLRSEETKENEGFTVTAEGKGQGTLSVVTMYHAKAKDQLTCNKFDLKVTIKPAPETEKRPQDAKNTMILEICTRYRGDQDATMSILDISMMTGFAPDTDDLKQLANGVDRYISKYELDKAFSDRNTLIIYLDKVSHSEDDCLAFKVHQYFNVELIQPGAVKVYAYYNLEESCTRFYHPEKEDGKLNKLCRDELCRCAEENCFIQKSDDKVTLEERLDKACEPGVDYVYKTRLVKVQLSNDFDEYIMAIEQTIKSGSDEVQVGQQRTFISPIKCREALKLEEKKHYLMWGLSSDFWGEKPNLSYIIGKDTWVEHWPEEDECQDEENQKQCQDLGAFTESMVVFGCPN
On to B1, for which the EC50 hC3 cleavage came to 9.5 nM.

In the case of B2, the EC50 hC3 cleavage was found to be 7.6 nM.

B3: the EC50 hC3 cleavage was found to be 16 nM.

For B4, the EC50 hC3 cleavage is 10.6 nM.

On to B5, for which the EC50 hC3 cleavage is 44.7 nM.

The molecule B6 returned an EC50 hC3 cleavage of 4.49 nM.

For B7, the EC50 hC3 cleavage is 9.89 nM.

In turn, B8 gave an EC50 hC3 cleavage of 10.2 nM.

Source of the values: patent US20240018502A1.
